Reference: paper PMC7136553

Experiments:
[1] = biological target: C3(x)1 from methylamine treated C3 (peak 2 of the MonoS cation exchange column) (human) (UniProt P01024)
[2] = biological target: C3(x)2 from methylamine treated C3 (peak 3 of the MonoS cation exchange column) (human) (UniProt P01024)
C3b (human) = C3b (human) (UniProt P01024)

FB remaining after addition of FD (Wes immunoassay with a mAb to Bb), 1-120 min at 37°C in VB++: practically all at 1 min, 85% at 5 min, 60% at 15 min, 30–40% at 60–120 min [1]: 85%
FB remaining after addition of FD (Wes immunoassay with a mAb to Bb), 1-120 min at 37°C in VB++: all at 1–5 min, 90% at 15 min, 60% at 120 min [2]: 90%
FB remaining after addition of FD (Wes immunoassay with a mAb to Bb), 1-120 min at 37°C in VB++: 90% at 1 min, ca. 60% at 5 min, 25% at 15 min, almost all consumed at 30 min (C3b (human)): 90%
Substance: Factor B (natural protein)
